{"source": "patent US20140113348A1", "about": "(CITY OF HOPE, published 2014)", "key": {"[1]": {"biological_target": "T1, meditope-enabled trastuzumab", "T1 construct": "Full IgG expressed in mammalian cells; also called TM; trastuzumab memAb", "T1 sequence (heavy, as listed by the source limits assumed, chain 1 of 2)": "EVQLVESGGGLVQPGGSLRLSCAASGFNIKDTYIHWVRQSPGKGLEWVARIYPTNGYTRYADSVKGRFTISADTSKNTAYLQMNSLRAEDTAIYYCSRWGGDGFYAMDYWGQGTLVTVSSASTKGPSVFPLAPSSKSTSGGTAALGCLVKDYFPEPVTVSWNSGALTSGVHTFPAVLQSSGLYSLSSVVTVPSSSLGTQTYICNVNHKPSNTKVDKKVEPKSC", "T1 sequence (light, as listed by the source limits assumed, chain 2 of 2)": "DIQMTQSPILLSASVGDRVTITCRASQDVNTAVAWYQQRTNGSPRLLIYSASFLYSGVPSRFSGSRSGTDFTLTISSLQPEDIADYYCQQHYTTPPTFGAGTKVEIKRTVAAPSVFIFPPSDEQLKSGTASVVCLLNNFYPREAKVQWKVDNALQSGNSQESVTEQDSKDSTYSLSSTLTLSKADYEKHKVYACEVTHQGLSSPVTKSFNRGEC", "assay": "SPR; earlier SPR study of paragraph 680, approximate binding constant stated in text"}, "[2]": {"biological_target": "T2, HER2 on SKBR3 cells (UniProt P04626 23-1255, limits assumed)", "T2 construct": "whole, on cells; also called HER2-expressing cells (SKBR3)", "assay": "FACS, SKBR3 cells without antibody"}, "[3]": {"biological_target": "T3, meditope-enabled M5A (M5A 8M)", "T3 construct": "Eight point mutations in the light chain; wild-type heavy chain; expressed in NS0 cells; also called meditope-enabled anti-CEA antibody", "T3 sequence (light, as listed by the source, chain 1 of 2)": "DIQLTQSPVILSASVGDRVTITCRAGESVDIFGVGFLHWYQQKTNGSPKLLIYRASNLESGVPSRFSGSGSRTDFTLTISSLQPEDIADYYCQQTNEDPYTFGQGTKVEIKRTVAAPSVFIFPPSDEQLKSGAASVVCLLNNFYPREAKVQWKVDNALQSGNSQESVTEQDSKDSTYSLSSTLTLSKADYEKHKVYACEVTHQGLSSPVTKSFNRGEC", "T3 sequence (heavy, as listed by the source, chain 2 of 2)": "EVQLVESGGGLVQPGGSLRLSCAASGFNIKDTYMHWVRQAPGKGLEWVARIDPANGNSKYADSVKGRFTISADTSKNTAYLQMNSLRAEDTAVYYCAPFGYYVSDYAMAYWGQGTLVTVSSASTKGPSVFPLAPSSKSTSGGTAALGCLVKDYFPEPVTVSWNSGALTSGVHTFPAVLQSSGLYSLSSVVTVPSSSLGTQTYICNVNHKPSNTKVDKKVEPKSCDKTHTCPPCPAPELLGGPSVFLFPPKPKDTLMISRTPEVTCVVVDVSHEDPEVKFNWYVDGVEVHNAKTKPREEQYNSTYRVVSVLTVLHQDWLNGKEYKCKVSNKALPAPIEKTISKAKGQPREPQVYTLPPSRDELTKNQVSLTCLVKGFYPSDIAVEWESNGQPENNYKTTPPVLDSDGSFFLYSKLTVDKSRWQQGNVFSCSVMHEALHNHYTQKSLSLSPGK", "assay": "FACS, LS174T cells with 500 nM AF488 M5A 8M and 9 µM AF647-MPL, 30 min [upper right histogram]", "description": "(§1) Cells were washed twice with 0.1% BSA and FACS analysis was performed."}, "[4]": {"biological_target": "T4, wild-type M5A (anti-CEA antibody)", "T4 construct": "Humanized antibody with the same backbone as trastuzumab", "T4 sequence (light, as listed by the source, chain 1 of 2)": "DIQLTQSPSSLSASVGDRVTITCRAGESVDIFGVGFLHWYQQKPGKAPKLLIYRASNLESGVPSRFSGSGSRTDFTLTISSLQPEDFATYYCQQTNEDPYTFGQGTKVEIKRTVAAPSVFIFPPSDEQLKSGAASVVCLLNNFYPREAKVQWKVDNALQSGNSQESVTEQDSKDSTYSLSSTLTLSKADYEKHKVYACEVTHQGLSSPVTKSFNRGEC", "T4 sequence (heavy, as listed by the source, chain 2 of 2)": "as the sequence (heavy, as listed by the source, chain 2 of 2) above", "assay": "FACS, LS174T cells with 500 nM AF488 wild-type M5A and 9 µM AF647-MPL, 30 min [upper right histogram]", "description": "as §1"}, "[5]": {"biological_target": "T5, wild-type trastuzumab", "T5 construct": "also called WT T", "T5 sequence (heavy, as listed by the source limits assumed, chain 1 of 2, other chains not shown)": "as the sequence (heavy, as listed by the source limits assumed, chain 1 of 2) above, with S40A, I93V counted along it", "assay": "FACS, SKBR3 cells pre-treated with AF488 wild-type trastuzumab, then 0.1 or 1 µM AF647-MPL (L3), washed extensively"}, "[6]": {"biological_target": "T5, wild-type trastuzumab", "assay": "FACS, SKBR3 cells pre-bound with WT T, washed, then 0.1 or 1 µM Alexa 647-MPL-5K"}, "[7]": {"biological_target": "T3, meditope-enabled M5A (M5A 8M)", "assay": "SPR"}, "[8]": {"biological_target": "T3, meditope-enabled M5A (M5A 8M)", "assay": "SPR, kinetic fit, meditope at 10, 2, 0.4 and 0.08 uM over M5A 8M IgG immobilized at 5000 RU"}}, "note": "Bridges are numbered along the chain shown (N, C = ends). Where no end group is shown, it is not given here. [ ]: non-standard residue; d: D form. Dip = N[C@H](C(=O)O)C(c1ccccc1)c1ccccc1"}
{"binder": "Protein L (single Fab binding domain) (other, also called Protein L (only); protein L alone) EVTIKVNLIFADGKIQTAEFKGTFEEATAEAYRYAALLAKVNGEYTADLEDGGNHMNIKFAG", "values": [{"measurement": "Kd", "setting": "[1]", "value": "~500", "unit": "nM"}]}
{"binder": "meditope-Protein L fusion protein (MPL), linker GGGGS (designed binder, the two cysteines cyclized (disulfide), Labeled with AF647 in cell assays; also called MPL (L3); MPL (WT)) SCQFDLSTRRLKCGGGGSEVTIKVNLIFADGKIQTAEFKGTFEEATAEAYRYAALLAKVNGEYTADLEDGGNHMNIKFAG", "values": [{"measurement": "binding result", "setting": "[2]", "value": "no binding (tested: 0.1 µM or 1 µM MPL)"}, {"measurement": "binding result", "setting": "[3]", "value": "binds"}, {"measurement": "binding result", "setting": "[4]", "value": "binds"}, {"measurement": "binding result", "setting": "[5]", "value": "no binding (tested: 1 µM)"}]}
{"binder": "meditope-Protein L fusion in which all but one lysine were mutated to arginine or asparagine (MPL-5K) (designed binder) SCQFDLSTRRLRCGGGGSEVTIRVNLIFADGNIQTAEFRGTFEEATAEAYRYAALLARVNGEYTADLEDGGNHMNIKFAG", "values": [{"measurement": "binding result", "setting": "[2]", "value": "no binding"}, {"measurement": "binding result", "setting": "[6]", "value": "no binding (tested: 1 µM)"}]}
{"binder": "CQYNLSSRALKC (disulfide 1-12, also called meditope 2)", "note": "[cQYN meditope (cyclic CQYNLSSRALKC)]", "values": [{"measurement": "binding result", "setting": "[7]", "value": "binds"}]}
{"binder": "CQFD[Dip]STRRLKC (disulfide 1-12, also called CQFDA(diphenyl)STRRLKC; 5-diphenyl meditope)", "note": "[meditope 18 (C-QFDXSTRRLK-C)]", "values": [{"measurement": "Kd", "setting": "[8]", "value": 438, "unit": "nM"}, {"measurement": "koff", "setting": "[8]", "value": 0.015, "unit": "s⁻¹"}, {"measurement": "kon", "setting": "[8]", "value": 34300, "unit": "M⁻¹ s⁻¹"}]}
{"binder": "Ac-CQFDLSTRRLRCGGGSK (disulfide 1-12; also: fluorescein attached in labeled form for polarization assay)", "note": "[meditope 31 (AcC-QFDLSTRRLR-CGGGSK)]", "values": [{"measurement": "binding result", "setting": "[7]", "value": "binds"}]}
